Measurements taken from patent US20130309248A1.
Substitutions are numbered along the chain they refer to.

B1: CR8001 (antibody, V domains shown)
VH: EVQLVESGGGLIQPGGSLRLSCAASGFTVSSNYVSWVRQAPGKGLEWLSLIYTGGTTYYADSVKGRFTISRDNSKNTVFLQMNSLRAEDAAMYYCARVSALRFLQWPNYAMDV
VL: QSALTQPASVSGSPGRSITISCSGTRSDVGGHNYVSWYQQHPGKAPKLMIYEVSHRPSGVSNRFSGSKSGSTASLTISGLQSEDEADYYCSSYTGEGPLGV
B2: CR8039 (antibody, V domains shown)
VH: QLQLQESGPGLVKPSETLSLTCTVSGGSIGSYYWSWIRQPPGKGLEWIGYIYYRGGTSYNPSLKSRVTISVDTSKSQFTLKLNSVTAADTAVYYCARKDWGSAAGSVWYFDL
VL: QSALTQPPSASGSPGQSVTISCTGTSSDVGGYNYVSWYQQHPGKAPKLMIREVSKRPSGVPDRFSGSKSGNTASLTVSGLQAEDEAEYYCSSYAGSNNLI
B3: CR8049 (antibody, V domains shown)
VH: QVTLKESGPVLVKPKETLTLTCTVSGFSLSNTRMGVSWIRQPPGKALEWLAHIFSNDETSYRTSLKRRLTISQDISKSQVVLSMTNVDPADTATYFCARIGSGYESSAYSTWLDP
VL: QVQLQQWGAGLLKPSETLSLTCAVYGGSFTDHYWSWIRQSPGKGLEWIGEVVHSGDTNYTPSLRNRVSISVDSSKNQFSLRLGSVTAADTAVYYCARGRNVAVVGAIQRHYDY
B4: CR8052 (antibody, V domains shown)
VH: DIQLTQSPSSLSASVGDRVTITCRASQGINTYLNWYQQKPGKAPKVLIFAASTLQSGVPSRFSGSGSGTEFTLNINNLQPEDFATYYCQQSYSTAIT
VL: EVQLVESGGGVVQPGRSLRLSCAASGFSFTTYGMHWVRQAPGKGLEWVAFIWYDGSNKHYQDSVKGRFTISKDNSNNMLYLQMDSLRVADTAVYYCVRDGGYSTWEWYFDL
B5: CR8003 (antibody, V domains shown)
VH: EVQLVETGGDLVQPGGSLRLSCSASEFSFSSYWMSWVRQAPGKGLEWVANMKQDGSEKYYVDSVKGRFTISRDNAKNSLYLQMNSLRGEDTAVYYCARGSCDDSWTGCHDAFDI
VL: VLTQPPSVSVAPGQTARIACGGNNIGSKSVHWYQQKPGQAPVLVVYDDSARPSGIPERFSGSNSGNTATLTISRVEAGDEADYYCQVWESGSDLRLL
B6: CR8015 (antibody, V domains shown)
VH: B5 VH with E1Q, V5Q, T7S
VL: VLTQPPSVSVAPGQTAKITCGGDNIGRKSVHWYQQKPGLAPVLVVNDNSDRPSGIPARFSGSNSGNTATLTISRVEAGDEADYYCHVWGSSRDHYV
B7: CR8016 (antibody, V domains shown)
VH: B5 VH with T7S
VL: QSVVTQPPSVSGAPGQRVTISCTGSSSNIGAGYDVHWYQQLPGTAPKLLIYGNNNRPSGVPDRFSGSRSGPLALLAITGLQAEDEADYYCQSYDSSLSVYV
B8: CR8017 (antibody, V domains shown)
VH: B5 VH
VL: SSELTQDPAVSVALGQTVRITCQGDSLRSYYASWYQQKPGQAPVLVIYAKTNRPSGIPDRFSGSTSGNTASLTITGAQAEDEADYYCNSRDSSGNHVV
B9: CR8018 (antibody, V domains shown)
VH: B5 VH
VL: B1 VL with R16Q, S23T, R26S, H32Y
B10: CR8050 (antibody, V domains shown)
VH: EIVMTQSPGTLSLSPGERATLSCRASQSVSRNYLAWYQQKPGLAPRLLISGASSRATGVPDRFSGRGSDTDFTLTISRLEPEDFAVYYCQHYGSVLVA
VL: QVQLQESGPGLVKPSETLSLTCTVSGGSVSSGTYYWSWIRQPPGKGLEWIGDISYSGSTNYNPSLKSRVTISRDTSKNLVSLKLTSVTAADTAVHYCARAMAAYNYDRGGYNDYYYMDV
B11: CR8041 (antibody, V domains shown)
VH: QVQLVQSGAEVKKPGASVKVSCQASGYTFTSFGLSWVRQAPGQGPEWMGWISAYNGEIKYAQKFQGRVSMTTDTSTRTAYMEVRSLRPDDTAVYYCAREPPLYFSSWSLDF
VL: EIVLTQSPGTLSLSPGERATLSCRASQSVSSNYLAWFQQKPGQAPRLLIYGASRRATGIPDRFSGSGSGTDFTLTISRLEPEDFAVYYCQQYDSSPRT

Biological target: 3 H1N1 strains (1999-2007)
Assay: cell-based or functional assay

Binder | SK50 titer [µg/mL]
B1 | > 40

Biological target: HA of virus A/Brisbane/59/2007 (H1N1) (influenza A virus (H1N1))
Assay: cell-based or functional assay

Binder | Neutralization titer SK50 [µg/mL]
B1 | > 40
B2 | > 40
B3 | > 40
B4 | > 40
B5 | > 40
B6 | > 40
B7 | > 40
B8 | > 40
B9 | > 40

Biological target: HA of virus A/Chick/Germany/N/49 (H10) (influenza A virus (H10))
Assay: cell-based or functional assay

Binder | Neutralization titer SK50 [µg/mL] | SK50 titer [µg/mL]
B1 | > 40 | > 40
B2 | > 40 | –
B3 | > 40 | –
B10 | > 40 | –
B4 | > 40 | –
B5 | > 40 | –
B6 | > 40 | –
B7 | > 40 | –
B8 | > 40 | –
B9 | > 40 | –

Biological target: HA of virus A/Hiroshima/52/2005 (H3N2) (influenza A virus (H3N2))
Assay: cell-based or functional assay

Binder | Neutralization titer SK50 [µg/mL] | SK50 titer [µg/mL]
B1 | 13 | 13
B2 | 3.26 | –
B3 | 3.54 | –
B4 | > 40 | –
B5 | 4.27 | –
B6 | 28.3 | –
B7 | 8.84 | –
B8 | 13.6 | –
B9 | 8.45 | –

Biological target: HA of virus A/Johannesburg/33/94 (H3N2) (influenza A virus (H3N2))
Assay: cell-based or functional assay

Binder | Neutralization titer SK50 [µg/mL] | SK50 titer [µg/mL]
B1 | 6.51 | 6.5
B2 | 1.33 | –
B3 | > 40 | –
B10 | 1.49 | –
B4 | > 40 | –
B5 | > 40 | –
B6 | > 40 | –
B7 | > 40 | –
B8 | > 40 | –
B9 | > 40 | –

Biological target: HA of virus A/Mallard/Netherlands/12/2000 (H7N3) (influenza A virus (H7N3))
Assay: cell-based or functional assay

Binder | Neutralization titer SK50 [µg/mL] | SK50 titer [µg/mL]
B1 | > 40 | > 40
B2 | > 40 | –
B3 | > 40 | –
B10 | > 40 | –
B4 | > 40 | –
B5 | > 40 | –
B6 | > 40 | –
B7 | > 40 | –
B8 | > 40 | –
B9 | > 40 | –

Biological target: HA of virus A/New Caledonia/20/1999 (H1N1) (influenza A virus (H1N1))
Assay: cell-based or functional assay

Binder | Neutralization titer SK50 [µg/mL]
B1 | > 40
B2 | > 40
B3 | > 40
B4 | > 40
B5 | > 40
B6 | > 40
B7 | > 40
B8 | > 40
B9 | > 40

Biological target: HA of virus A/Panama/2000/1999 (H3N2) (influenza A virus (H3N2))
Assay: cell-based or functional assay

Binder | Neutralization titer SK50 [µg/mL] | SK50 titer [µg/mL]
B1 | > 40 | > 40
B2 | 4.6 | –
B3 | > 40 | –
B10 | 6.5 | –
B4 | 21.9 | –
B5 | > 40 | –
B6 | > 40 | –
B7 | 28.3 | –
B8 | > 40 | –
B9 | > 40 | –

Biological target: HA of virus A/Solomon Islands/IVR-145 (H1N1) (influenza A virus (H1N1))
Assay: cell-based or functional assay

Binder | Neutralization titer SK50 [µg/mL]
B1 | > 40
B2 | > 40
B3 | > 40
B4 | > 40
B5 | > 40
B6 | > 40
B7 | > 40
B8 | > 40
B9 | > 40

Biological target: HA of virus A/Wisconsin/67/2005 (H3N2) (influenza A virus (H3N2))
Assay: cell-based or functional assay

Binder | Neutralization titer SK50 [µg/mL] | SK50 titer [µg/mL]
B1 | 11.9 | 11.9
B2 | 1.8 | –
B3 | 3.26 | –
B10 | 1.77 | –
B4 | > 40 | –
B5 | 5.31 | –
B6 | 23.8 | –
B7 | 1.77 | –
B8 | 2.82 | –
B9 | 6.03 | –

Biological target: 3 H1N1 strains (1999-2007)
Assay: cell-based or functional assay
Remark: another data set of the same source

Binder | SK50 titer [µg/mL]
B11 | > 40

Biological target: full-length recombinant H1 HA (A/New Caledonia/20/1999) on PER.C6 cells (influenza A virus (H1N1))
Assay: FACS, IgG 5 µg/ml, HA-expressing PER.C6 cells; untransfected MFI 3

Binder | MFI [MFI]
B3 | 3
B5 | 3
B6 | 4
B7 | 3
B8 | 3
B9 | 3

Biological target: full-length recombinant H3 HA (A/Wisconsin/67/2005) on PER.C6 cells (influenza A virus (H3N2))
Assay: as above

Binder | MFI [MFI]
B3 | 542
B5 | 657
B6 | 600
B7 | 840
B8 | 558
B9 | 348

Biological target: full-length recombinant H7 HA (A/Netherlands/219/2003) on PER.C6 cells (influenza A virus (H7N7))
Assay: as above

Binder | MFI [MFI]
B3 | 4
B5 | 5
B6 | 4
B7 | 5
B8 | 4
B9 | 4

Biological target: full-length recombinant H1 HA (A/New Caledonia/20/1999) on PER.C6 cells (influenza A virus (H1N1))
Assay: FACS, IgG 5 µg/ml, HA-expressing PER.C6 cells; untransfected MFI 4

Binder | MFI [MFI]
B1 | 100
B2 | 4
B4 | 4
B11 | 4

Biological target: full-length recombinant H3 HA (A/Wisconsin/67/2005) on PER.C6 cells (influenza A virus (H3N2))
Assay: as above

Binder | MFI [MFI]
B1 | 763
B2 | 503
B4 | 364
B11 | 364

Biological target: full-length recombinant H7 HA (A/Netherlands/219/2003) on PER.C6 cells (influenza A virus (H7N7))
Assay: as above

Binder | MFI [MFI]
B1 | 106
B2 | 4
B4 | 5
B11 | 120

Biological target: full-length recombinant H1 HA (A/New Caledonia/20/1999) on PER.C6 cells (influenza A virus (H1N1))
Assay: FACS, IgG 5 µg/ml, HA-expressing PER.C6 cells; untransfected MFI 6

Binder | MFI [MFI]
B10 | 8

Biological target: full-length recombinant H3 HA (A/Wisconsin/67/2005) on PER.C6 cells (influenza A virus (H3N2))
Assay: as above

Binder | MFI [MFI]
B10 | 282

Biological target: full-length recombinant H7 HA (A/Netherlands/219/2003) on PER.C6 cells (influenza A virus (H7N7))
Assay: as above

Binder | MFI [MFI]
B10 | 6
